# In article PMC6127294, “Jungle Express is a versatile repressor system for tight transcriptional control” (Nature Communications, 2018):
# B1: EilR (natural protein, Enterobacter lignolyticus)
# chain: MGYLNREERRETIMQAAMRVALDQGFTGMTVRNIATAAGVAAGQVHHHFTSSGELKSQAFIRVIREMMDLQRLSRTAGWREQLFSALGSEDGRLEPYIRLWRQAQLLADSDPEIKSAYLLTMNLWHDEAVRIIRAGHAAGEFTLRDSAENIAWRLISLVCGLDGIYVLGMPEVDDAAFTRHLQHVIQLELFS
# modifications: selenomethionine-labeled protein for the EilR-eilO crystal structure
# notes: 21.6 kDa monomer; also called EilR repressor; EilR-His8 (before cleavage of the tag); source: E. coli harboring pLane-eilR, purified (His-Trap, TEV cleavage, second His-Trap flowthrough)
# Biological target: the molecule itself
# Assay: crystal structure; EilR (selenomethionine-labeled) in complex with the duplexed eilOc operator oligonucleotide, 2:1 protein:DNA molar ratio; 0.1 M Li2SO4, 0.1 M MgCl2, 0.1 M HEPES pH 7.5, 20% PEG 3350, 10% hexanediol
protein,measurement,value
B1,stoichiometry N,2
